Reference: patent US6319685A (Unigene Laboratories, Inc., priority 1987, dated 2001)

How the values were obtained:
Type in all cases: biochemical
alpha-amidating enzyme [1] = target: T1, alpha-amidating enzyme (Rattus norvegicus, UniProt P14925); assay: kinetic studies of alpha-amidating enzyme with monodansyl L-Tyr-Val-Gly; conditions: pH 7.0, 37° C.
T1 sequence (P14925 36-976): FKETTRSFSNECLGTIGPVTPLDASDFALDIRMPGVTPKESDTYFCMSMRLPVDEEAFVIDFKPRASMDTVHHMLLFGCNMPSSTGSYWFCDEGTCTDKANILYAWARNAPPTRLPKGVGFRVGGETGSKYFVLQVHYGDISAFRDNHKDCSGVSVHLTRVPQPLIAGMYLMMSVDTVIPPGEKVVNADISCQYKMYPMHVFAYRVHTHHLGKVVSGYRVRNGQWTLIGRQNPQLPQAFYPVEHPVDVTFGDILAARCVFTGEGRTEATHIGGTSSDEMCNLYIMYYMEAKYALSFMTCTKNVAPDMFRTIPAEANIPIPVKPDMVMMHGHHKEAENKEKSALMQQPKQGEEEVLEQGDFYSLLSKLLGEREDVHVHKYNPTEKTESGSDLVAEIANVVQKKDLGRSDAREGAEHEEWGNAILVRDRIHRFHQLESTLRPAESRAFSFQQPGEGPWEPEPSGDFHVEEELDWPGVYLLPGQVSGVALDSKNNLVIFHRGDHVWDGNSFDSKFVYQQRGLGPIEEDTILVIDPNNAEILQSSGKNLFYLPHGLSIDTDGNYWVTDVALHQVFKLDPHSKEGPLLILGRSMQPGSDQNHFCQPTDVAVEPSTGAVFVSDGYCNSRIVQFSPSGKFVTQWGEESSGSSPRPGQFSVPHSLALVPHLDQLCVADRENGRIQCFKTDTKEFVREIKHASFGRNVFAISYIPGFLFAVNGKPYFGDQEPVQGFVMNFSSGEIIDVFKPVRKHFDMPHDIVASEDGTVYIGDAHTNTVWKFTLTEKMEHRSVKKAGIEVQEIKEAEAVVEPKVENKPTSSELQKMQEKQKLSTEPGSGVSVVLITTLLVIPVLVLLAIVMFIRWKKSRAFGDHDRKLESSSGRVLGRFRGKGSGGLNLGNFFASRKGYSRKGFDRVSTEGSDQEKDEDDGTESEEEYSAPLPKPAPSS
Text: These assays incorporate the use of synthetic tripeptide substrates. Amidation of these substrates is conveniently monitored by separation and quantification of the product ([…] and substrate tripeptide) using HPLC. The most sensitive of the assays developed utilizes monodansyl L-Tyr-Val-Gly as substrate. This compound can be detected at extremely low levels because the dansyl group is fluorescent.
In particular, the kinetic parameters Km and Vmax have been determined by examination of the effect of variation of substrate concentration upon enzymatic activity. […] The smaller the Km the greater the affinity. Vmax is the maximum velocity at which the enzyme will convert the substrate to product and is observed at saturating concentrations of substrate (i.e., the substrate is present in large excess over the enzyme).
In a typical amidation enzyme assay, the reation system (50 ul) would comprise enzyme (approximately 7 μg), dansyl L-Tyr-Val-Gly (up to 40 μM), L-ascorbic acid (3 mM), catalase (0 to 100 μg ml^-1), and copper sulfate (0 to 2 uM) in 60 mM TES buffer at pH 7.0. The reaction is initiated at 37° C. by the addition of enzyme and terminated after a defined period of time by the addition of 0.1 M EDTA (final concentration), which binds up copper making it unavailable for the enzyme.

alpha-amidating enzyme [2] = target: T1, alpha-amidating enzyme; assay: comparison of assay systems / kinetic analysis of amidation of dansyl-Tyr-Val-Gly, D-Tyr-Val-Gly and 125I-D-Tyr-Val-Gly
Method: I. Monodansyl L-Tyr-Val-Gly
The concentration of enzyme used in all experiments was left constant except where noted.
(§1) The reaction mixture for the conversion of the monodansyl substrate contained:
5 μl of 100 ug/mL bovine pancreatic catalase
5 μl containing 2 nmoles of substrate
The samples were prepared in duplicate and incubated at 37° C. for 10, 20 and 30 minutes time periods. The enzymatic reaction was halted by the addition of 10 ul 500 mM EDTA. Substrate and product were separated by RP HPLC using an Hewlett Packard-1090 liquid chromatography system, and quantitation was achieved using a HP-3392 integrator.
D-Tyr-Val-Gly and D-Tyr-Val-NH2 were iodinated using iodobeads from Pierce Chemical Company. The radiolabeied substrate and product were used to calibrate a sulfyl-propyl cation-exchange column. ^125 I D-Tyr-Val-Gly was added to 650 uM D-Tyr-Val-Gly and used as the substrate. The reaction mixture for the conversion of monodansyl substrate contained:
Samples were incubated for 10, 20, 30 minutes at 37° C. The reaction was stopped by addition of 500 mM EDTA. […] The conversion of radiolabeled substrate to product was linear with respect to time.
The reaction conditions used for the amidation of D-Tyr-Val-Gly are identical to those described for the dansyl and iodinated substrates. Substrate concentration in the reaction mixture was 650 uM. Separation of substrate and product is achieved by gradient elution on RP-HPLC using a HP-1090 liquid chromatography system. The column effluents were monitored at 280 nm. The level of sensitivity for this assay is much lower than that for either dansyl or iodinated substrates.
Furthermore, a somewhat more rigorous kinetic analysis has also been employed to compare the dansyl-Tyr-Val-Gly (Applicants') assay to the D-Tyr-Val-Gly (prior art) assay.

[3] = specific alpha-amidating activity, conversion of Dansyl-D-Tyr-Val-Gly to Dansyl-D-Tyr-Val-CONH2; conditions: CA-77 media
Method: These and other objects will become apparent from a thorough reading of the present disclosure. […] All specific activity units set forth herein are based upon the conversion of Dansyl-D-Try-Val-Gly-COOH to Dansyl-D-Tyr-Val-CONH2. One mU is defined as the amount of activity needed to convert one nanomole (nmole) of Dansyl-D-Tyr-Val-Gly-COOH to one nmole of Dansyl-D-Tyr-Val-CONH2 per minute at 37° C. and pH 7.0 in the presence of ascorbate ions at a concentration of 3 mM (based on total reaction mixture including enzyme, substrate, co-factors, etc.), molecular oxygen in a molar excess over substrate and a concentration of cupric ions effective to maximize activity (usually about 2 μM depending on the state of purity of the enzyme).
Each purification step can be monitored for both protein content and the level of alpha-amidation activity. This information is used to calculate the specific activity of the enzyme which serves as an indicator of the relative purity of the enzyme.
Sephacryl S-300 (Pharmacia) was equilibrated in 50 mM Tris HCl pH 7.0 and poured into a K 50/100 column (Pharmacia) according to the manufacturer's instructions. The bed volume of the column was approximately 1.3 liters. The Sample was loaded onto the column in a volume representing approximately 3 percent of the bed volume of the column. Proteins were eluted from the column in 50 mM Tris HCl pH 7.0 at a flow rate of approximately 2 ml per minute.
as §1
The samples were prepared in duplicate and incubated at 37° C. for 10, 20 and 30 minutes time periods. The enzymatic reaction was halted by the addition of 10 ul 500 mM EDTA.

[4] = nonspecific proteolytic activity of enzyme preparation; conditions: CA-77 media, after DEAE and Sephacryl 300-SF

monodansyl L-Tyr-Val-Gly [Dansyl-Tyr-Val-Gly]
Km (alpha-amidating enzyme [1]; regardless of the state of purification of the enzyme): 1 to 2 µM
Km (alpha-amidating enzyme [2]): 1.7 µM
Vmax (alpha-amidating enzyme [2]): 21 pmol product/min/μl

B1: alpha-amidating enzyme (CA-77): alpha-amidating enzyme derived from CA-77 cell tissue culture media (protein, UniProt P14925 36-976, looked up)
Peptidylglycine …: T1 sequence (P14925 36-976)
activity ([3]; after DEAE and Sephacryl 300-SF): at least 50 mU/mg protein
specific activity ([3]; fractions from DEAE weak anion exchange cartridge): 10-15 mU/mg
nonspecific proteolytic activity [4]: free of nonspecific proteolytic activity

B2: pure tumor enzyme: pure alpha-amidating enzyme from tumor (protein, UniProt P14925 36-976, looked up)
Peptidylglycine …: T1 sequence (P14925 36-976)
Vmax (alpha-amidating enzyme [1]; dansyl L-Tyr-Val-Gly, pure tumor enzyme): about 5000 nmol product formed per mg protein
